B1: γ6 L43S: γ6 with leucine at position 43 substituted with serine (protein, UniProt Q9BXT2 1-260, looked up, variant L43S)
Voltage-dependent calcium …: MMWSNFFLQEENRRRGAAGRRRAHGQGRSGLTPEREGKVKLASLLAAVGATLAVLSVGTEFWVELNTYKANGSAVCEAAHLGLWKACTKRLWQADVPVDRDTCGPAELPGEANCTYFKFFTTGENARIFQRTTKKEVNLAAAVIAVLGLAVMALGCLCIIMVLSKGAEFLLRVGAVCFGLSGLLLLVSLEVFRHSVRALLQRVSPEPPPAPRLTYEYSWSLGCGVGAGLILLLGAGCFLLLTLPSWPWGSLCPKRGHRAT
B2: γ7: rat calcium channel γ7 subunit (AF361345), SEQ ID NO:50 (protein, listed as Rattus norvegicus)
chain: MSHCSSRALTLLSSVFGACGLLLVGIAVSTDYWLYMEEGTVLPQNQTTEVKMALHAGLWRVCFFAGREKGRCVASEYFLEPEINLVTENTENILKTVRTATPFPMVSLFLVFTAFVISNIGHIRPQRTILAFVSGIFFILSGLSLVVGLVLYISSINDEVMNRPSSSEQYFHYRYGWSFAFAASSFLLKEGAGVMSVYLFTKRYAEEEMYRPHPAFYRPRLSDCSDYSGQFLQPEAWRRGRSPSDISSDVSIQMTQNYPPAIKYPDHLHISTSPC

Columns and labels:
Cav3.1 [1] = molecular target: T1, Cav3.1 (Homo sapiens, UniProt O43497); assay: Whole-cell patch clamp of Cav3.1 current in Cav3.1-HEK cells transfected with γ6, γ4, their first transmembrane domains or point mutants (Example 3); format: cell-based; set-up: Activation K / Inactivation K: unit not given here; conditions: for Peak current density: Cav3.1-HEK cells, control 48.43±2.62; for Calcium current density (unit not given): Example 2, control −48.39+/−2.6, fusion series control −46.9+/−5; for Activation K / Activation V½ / Deactivation τ @−100 mV / Inactivation K / Inactivation V½ / Inactivation τ @−20 mV / Time to peak @−25 mV / Activation V peak: Table 3.2; for Normalized Current Density: relative to vector control (100.0%), Table 3.3
T1 construct: expressed in transfected cells; host or cells: HEK-293, stably transfected
Protocol: Transfection. HEK-293 cells stably transfected with the Cav3.1 α1 subunit were transiently transfected with vectors containing GFP and γ subunits cDNA when the cultures reached 50% confluency. Lipofectamine 2000 reagent (Invitrogen) was used following manufacturer's protocol.
Electrophysiology. Whole cell Ca2+ currents were recorded at room temperature using an Axon Instruments Axopatch-1D amplifier, a Digidata 1200 interface and pClamp8.0 software about 48 hours after transfection. Cell capacitance was typically around 10 pF, but ranged from 5-40 pF. Recording micropipettes were made from borosilicate glass (2-3 Mohms tip resistance), and filled with solution contained (in mM) 130 NaCl, 10 EGTA, 2 MgCl2, 1 CaCl2, 10 HEPES, 3 Tris-ATP, and 0.3 Li2GTP or 0.3 Tris-GTP. Tyrode's solution was used as the bath solution. It contained (in mM) 137 NaCl, 1 KCl, 1 MgCl2, 0.33 NaH2PO4, 2 CaCl2, 10 HEPES. Both solutions were adjusted to pH 7.4 with NaOH and 280 mOsm with sucrose.
We determined the biophysical characteristics of Cav3.1 currents in transfected HEK-293 cells and effects of the first transmembrane domain of γ4 and γ6 on these properties. Test parameters were optimized for studying Cav3.1 current. The time constant (τ) of deactivation (τdeac) was obtained by single exponential fitting of tail currents. For Cav3.1 currents, the cells were clamped at a holding potential of −100 mV, then depolarized to −20 mV for 4 msec, and repolarized to various voltages from −120 mV to −60 mV at 10 mV interval for 150 msec to elicit tail currents.
The voltage dependence of activation was measured using tail currents. For Cav3.1 currents, the cells were clamped at a holding potential equal to −100 mV, and then depolarized briefly to a conditioning potential, varying from −90 mV to +60 mV, and finally clamped at −60 mV before inactivation. Using this protocol, all tail currents are elicited at the same driving force (at −60 mV), so the current amplitude accurately reflects the number of channels opened during the different conditioning potentials.
A series of conditioning prepulses of 500 msec were used to measure voltage dependence of inactivation in our experiments. Channels initially open and then reach steady-state inactivation during the 500 msec long prepulses. The membrane potential is stepped to a fixed test potential of −20 mV, where maximal peak current is elicited. Currents elicited at each test potential reflect how many channels are not in the inactivated state after a steady-state inactivation; that is, how many channels are available to open. The conditioning prepulse potentials were changed from −120 mV to 50 mV, and the test potential is fixed at −20 mV.
Data collection and analysis. To probe the structural features necessary for the function of γ subunits, we are using HEK-293 cell line stably transfected with Cav3.1 α1 subunit. These cells are then transiently transfected with vectors containing various chimeric, truncated or mutant gamma subunits. […] There is inherent variation in calcium current density in the HEK-Cav3.1 stable cell line likely due to differences in the batch used, passenger number, extent of cellular confluence, or for other unknown reasons. The averaged current density of each test group of cells was normalized to the mean current density of a parallel control group of cells plated from the same batch of cells and analyzed on the same day. A minimum of 5 cells (typically 7 to 10) from each group was used to calculate the mean behavior of test and control cells from each days recording. At least two independent transfections were performed for each test condition. Overall, averages were obtained from 21 control groups of cells that had been transfected with empty vector over several months. The data are pooled together to reduce the variance. […] The current density of the control cells over many months justified the pooling of data recorded from different batches of cells transfected with mutated γ subunits. […]

Cav3.1 [2] = molecular target: T1, Cav3.1; assay: Whole-cell patch clamp of Cav3.1 dependent LVA calcium current in HEK-293/Cav3.1 cells transiently transfected with γ subunits (Example 1); format: cell-based
Protocol: 2.3. Transfection. Untransfected HEK-293 cells, HEK-293 cell lines stably transfected with Cav3.1, and HL-1 cells were transiently transfected with vectors containing γ subunit, GFP, and modified CFP cDNAs using Lipofectamine 2000 reagent (InVitrogen) as per the manufacturer's recommendations. HEK-293 cells were grown to 70-80% confluence before transfection. HL-1 cells were grown to 50-75% confluence before transfection.
2.4. Electrophysiology. Whole-cell calcium currents were recorded using an Axopatch-1 D patch clamp system and Clampex 8.0 software. Pipettes were fabricated from borosilicate glass and had typical resistances of 2-4 MΩ. The pipette solution contained (in mM): 130 NaCl, 10 EGTA, 2 MgCl2, 1 CaCl2, 10 HEPES, 3 Tris-ATP, and either 0.3 Li2GTP or 0.3 Tris-GTP, adjusted to pH 7.4 with NaOH and 280 mOsm with sucrose. The bath solution contained (in mM): 137 NaCl (for HEK-293 experiments) or 120 TEACl (for HL-1 experiments), 1 KCl, 1 MgCl2, 0.33 NaH2PO4, 2 CaCl2 (for HEK-293 experiments) or 5 CaCl2 (for HL-1 experiments), 10 glucose (for HL-1 experiments only), 10 HEPES, and 30 μM TTX (for HEK-293 experiments only), adjusted to pH 7.4 with NaOH (for HEK-293 experiments) or TEAOH (for HL-1 experiments) and 280 mOsm with sucrose. NaCl was used as the major salt in the pipette solution order to eliminate any outward K+ currents.
Recordings from HEK-293 cells were made 48-96 h posttransfection, at which time expression, as measured by GFP fluorescence, peaked. HL-1 cells were used for recording 24-36 h post-transfection. Current densities in HEK-293/Cav3.1 cell experiments were normalized to control for variation in current expression in the different frozen stocks of stable cell lines used. […] HL-1 experiments were performed using a single stock of cells. All HEK-293 data are from current records in which pipette and whole-cell capacitance were about 100% compensated and series resistance was compensated to >80%. Whole-cell capacitance and series resistance were not compensated for HL-1 recordings as currents were typically <100 pA. Series resistance values were typically <10 MX, and no records were used in which the voltage error (as defined by Ver=Imax×Ra) was greater than 5 mV. The holding potential of all protocols used for HEK-293 cells was −100 mV except for steady-state inactivation protocols where the holding potential was −120 mV. The holding potential for protocols used for HL-1 cells was −90 mV. Current-voltage relationships for all HEK-293 and HL-1 cells were measured using 50 ms test depolarizations. Peak current amplitudes for activation curves were determined by fitting tail currents, elicited by stepping membrane voltage from varying test potentials to −60 mV, with the Boltzman equation. Test potential steps for activation protocols were of varied durations, corresponding to the time to peak of the elicited current. Inactivation curves were determined by fitting peak amplitudes of currents, observed in a test pulse to −20 mV, following 500 ms steps to varying potentials, with the Boltzman equation. Time to peak was determined using the current-voltage protocol described above. Inactivation time constants were determined by fitting the decay phase of currents to an exponential equation and deactivation time constants were determined by fitting the decay phase of tail currents to an exponential equation. […] Currents were recorded at 40 kHz and on-line filtered at either 5 or 10 kHz. In some cases currents were off-line filtered at 1 kHz to further reduce noise. Current/voltage relationships and tail currents were recorded from HEK cells using an on-line P/−4 subtraction procedure. Calcium currents recorded from HL-1 cells were off-line leak subtracted. The average membrane capacitance of untransfected HEK-293 cells in pilot experiments was 12.5±1.4 pF (n=8). […]

T1 sequence (O43497 whole entry, the tested form may be a part): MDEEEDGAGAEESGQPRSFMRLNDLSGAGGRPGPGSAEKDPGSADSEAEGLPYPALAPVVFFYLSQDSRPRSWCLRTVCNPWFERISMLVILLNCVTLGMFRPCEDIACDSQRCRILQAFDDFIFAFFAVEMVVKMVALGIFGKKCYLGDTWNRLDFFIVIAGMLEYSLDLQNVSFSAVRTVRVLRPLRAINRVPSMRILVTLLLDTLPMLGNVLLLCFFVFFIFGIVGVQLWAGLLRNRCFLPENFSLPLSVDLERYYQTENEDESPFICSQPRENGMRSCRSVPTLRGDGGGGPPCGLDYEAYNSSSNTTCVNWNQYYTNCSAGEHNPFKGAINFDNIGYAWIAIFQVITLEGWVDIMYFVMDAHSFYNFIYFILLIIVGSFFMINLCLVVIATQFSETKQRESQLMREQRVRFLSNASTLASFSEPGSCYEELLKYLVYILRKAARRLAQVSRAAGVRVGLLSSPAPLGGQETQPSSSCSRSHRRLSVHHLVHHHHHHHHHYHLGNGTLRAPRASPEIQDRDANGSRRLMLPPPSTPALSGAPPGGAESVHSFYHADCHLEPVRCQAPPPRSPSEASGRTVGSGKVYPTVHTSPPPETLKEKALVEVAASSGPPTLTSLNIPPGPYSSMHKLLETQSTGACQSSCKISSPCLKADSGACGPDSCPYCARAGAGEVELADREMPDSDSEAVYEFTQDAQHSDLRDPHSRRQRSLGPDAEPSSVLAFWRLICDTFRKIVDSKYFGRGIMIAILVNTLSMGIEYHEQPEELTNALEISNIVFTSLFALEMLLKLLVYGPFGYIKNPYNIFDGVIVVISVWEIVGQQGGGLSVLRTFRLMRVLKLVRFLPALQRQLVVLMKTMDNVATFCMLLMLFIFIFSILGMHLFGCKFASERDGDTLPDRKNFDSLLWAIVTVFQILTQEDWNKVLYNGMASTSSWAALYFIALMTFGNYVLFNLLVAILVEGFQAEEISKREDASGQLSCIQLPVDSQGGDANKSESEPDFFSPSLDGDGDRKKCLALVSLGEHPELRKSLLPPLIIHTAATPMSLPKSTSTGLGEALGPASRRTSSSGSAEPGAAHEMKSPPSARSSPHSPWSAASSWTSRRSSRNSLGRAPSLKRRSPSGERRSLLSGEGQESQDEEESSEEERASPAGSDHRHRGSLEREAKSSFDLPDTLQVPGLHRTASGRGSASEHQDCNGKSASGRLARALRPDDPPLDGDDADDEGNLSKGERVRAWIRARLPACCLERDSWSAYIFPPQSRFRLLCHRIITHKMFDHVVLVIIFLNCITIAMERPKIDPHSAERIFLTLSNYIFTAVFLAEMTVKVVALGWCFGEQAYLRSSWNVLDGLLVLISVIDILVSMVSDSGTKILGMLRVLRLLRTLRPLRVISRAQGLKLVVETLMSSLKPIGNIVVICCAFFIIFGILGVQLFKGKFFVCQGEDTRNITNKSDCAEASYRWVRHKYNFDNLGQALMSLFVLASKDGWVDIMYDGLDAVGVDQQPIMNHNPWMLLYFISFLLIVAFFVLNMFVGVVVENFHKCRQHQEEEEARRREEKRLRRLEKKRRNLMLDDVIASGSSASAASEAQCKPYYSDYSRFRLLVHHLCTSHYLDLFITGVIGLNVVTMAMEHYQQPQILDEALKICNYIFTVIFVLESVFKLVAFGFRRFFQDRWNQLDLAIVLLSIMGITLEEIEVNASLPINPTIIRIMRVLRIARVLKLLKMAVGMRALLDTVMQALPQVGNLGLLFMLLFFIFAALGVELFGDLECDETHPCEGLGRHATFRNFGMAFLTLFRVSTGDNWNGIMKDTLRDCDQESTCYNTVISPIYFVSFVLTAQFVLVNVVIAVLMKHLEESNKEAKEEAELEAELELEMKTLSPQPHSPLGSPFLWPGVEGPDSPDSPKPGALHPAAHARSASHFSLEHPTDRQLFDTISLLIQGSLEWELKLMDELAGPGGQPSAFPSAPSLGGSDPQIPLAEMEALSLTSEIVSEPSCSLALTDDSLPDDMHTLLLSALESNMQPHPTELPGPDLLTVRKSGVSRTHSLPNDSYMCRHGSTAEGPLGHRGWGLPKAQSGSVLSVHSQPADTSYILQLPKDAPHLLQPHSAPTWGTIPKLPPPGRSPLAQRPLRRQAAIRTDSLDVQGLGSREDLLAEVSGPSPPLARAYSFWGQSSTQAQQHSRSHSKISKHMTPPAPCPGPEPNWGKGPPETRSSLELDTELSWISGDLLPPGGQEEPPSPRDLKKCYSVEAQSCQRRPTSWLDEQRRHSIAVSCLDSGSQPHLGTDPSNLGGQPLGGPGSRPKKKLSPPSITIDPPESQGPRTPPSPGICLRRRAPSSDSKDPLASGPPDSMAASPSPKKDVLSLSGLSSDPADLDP

Molecule	Peak current density (Cav3.1 [1]) [pA/pF]	Calcium current density (unit not given) (Cav3.1 [1])	Activation K (Cav3.1 [1])	Activation V½ (Cav3.1 [1]) [mV]	Deactivation τ @−100 mV (Cav3.1 [1]) [ms]	Inactivation K (Cav3.1 [1])	Inactivation V½ (Cav3.1 [1]) [mV]	Inactivation τ @−20 mV (Cav3.1 [1]) [ms]	Time to peak @−25 mV (Cav3.1 [1])	also measured
γ4 TM1: first transmembrane domain of γ4, SEQ ID NO:17 (LLTTAGAFAAFSLMAIAIGT)	56.34±5.01	−48.3+/−3	13.29 ± 0.70	−29.71 ± 2.03	2.40 ± 0.22	−5.92 ± 0.12	−66.17 ± 0.83	25.5 ± 0.9	9.00 ± 0.51	Activation V peak (Cav3.1 [1]; listed as γ4 1stTM): −28.57 ± 0.82 mV; Activation V peak (Cav3.1 [1]; listed as γ4 first transmembrane domain): −28.57±0.82 mV
γ6 TM1: first transmembrane domain of γ6, approximately 20 amino acids, SEQ ID NO:12 (KLGLLVAIVGATLAVLAVGT)	38.65±2.92	−38.6+/−2.9	10.85 ± 0.49	−30.33 ± 2.32	2.01 ± 0.21	−5.54 ± 0.12	−62.43 ± 0.65	24.0 ± 1.3	11.06 ± 0.97	Decrease of peak current density from control (Cav3.1 [1]; TM1 series, vs blank vector): 20%; Activation V peak (Cav3.1 [1]): −26.00±1.00 mV; Activation V peak (Cav3.1 [1]; listed as γ6 1stTM): −26.00 ± 1.00 mV
B1	–	–	–	–	–	–	–	–	–	Normalized Current Density (Cav3.1 [1]): 48.2%; Normalized Current Density (Cav3.1 [1]; listed as L43S): 48.2%±7.2%
B2	–	–	–	–	–	–	–	–	–	Effect on current kinetics or voltage dependency (Cav3.1 [2]; HEK-293/Cav3.1): did not alter current kinetics or voltage dependency; Peak current density, % of control value (Cav3.1 [2]; HEK-293/Cav3.1, normalized to adCGI vector control, mean±S.E.M.): 99%±8%; Effect on Cav3.1 current (Cav3.1 [2]; HEK-293 cells): no significant effect; Activation V 0.5 (Cav3.1 [2]; Table 2): −28.1 ± 1.2 (n = 11) mV; Activation k (Cav3.1 [2]; Table 2): 11.1 ± 0.3 (n = 11); Deactivation tau @ −100 mV, Fast (Cav3.1 [2]; Table 2): 1.30 ± 0.10 (n = 11) ms; Inactivation Tau @ −20 mV (Cav3.1 [2]; Table 2): 17.2 ± 0.5 (n = 10) ms; Inactivation V 0.5 (Cav3.1 [2]; Table 2): −68.6 ± 1.4 (n = 10) mV; Inactivation k (Cav3.1 [2]; Table 2): 6.0 ± 0.1 (n = 10); Time to peak @ −20 mV (Cav3.1 [2]; Table 2): 7.0 ± 0.4 (n = 11) ms; V peak (Cav3.1 [2]; Table 2): −24.1 ± 0.9 (n = 11) mV

Reference: US8022177B2, “Peptides and calcium regulation in mammalian cells” (The Board of Trustees of the University of Illinois, priority 2005, dated 2011)
